Response data for three variants are collected here from article PMC7016005 (2020).

Sequences and labels used below:
B1: mouse Twist1, wildtype [mouse] / mouse E2A [mouse] (parent complex)
chain 1: MMQDVSSSPVSPADDSLSNSEEEPDRQQPASGKRGARKRRSSRRSAGGSAGPGGATGGGIGGGDEPGSPAQGKRGKKSAGGGGGGGAGGGGGGGGGSSSGGGSPQSYEELQTQRVMANVRERQRTQSLNEAFAALRKIIPTLPSDKLSKIQTLKLAARYIDFLYQVLQSDELDSKMASCSYVAHERLSYAFSVWRMEGAWSMSASH
chain 2: MMNQSQRMAPVGSDKELSDLLDFSMMFPLPVANGKSRPASLGGTQFAGSGLEDRPSSGSWGSSDQNSSSFDPSRTYSEGAHFSDSHSSLPPSTFLGAGLGGKGSERNAYATFGRDTSVGTLSQAGFLPGELSLSSPGPLSPSGIKSSSQYYPSFPSNPRRRAADGGLDTQPKKVRKVPPGLPSSVYPPSSGDSYSRDAAAYPSAKTPSSAYPSPFYVADGSLHPSAELWSTPSQVGFGPMLGDGSSPLPLAPGSSSVGSGTFGGLQQQDRMGYQLHGSEVNGSLPAVSSFSAAPGTYSGTSGHTPPVSGAAAESLLGTRGTTASSSGDALGKALASIYSPDHSSNNFSPSPSTPVGSPQGLPGTSQWPRAGAPSALSPNYDAGLHGLSKMEDRLDEAIHVLRSHAVGTASDLHGLLPGHGALTTSFTGPMSLGGRHAGLVGGSHPEEGLTSGASLLHNHASLPSQPSSLPDLSQRPPDSYSGLGRAGTTAGASEIKREEKEDEEIASVADAEEDKKDLKVPRTRTSPDEDEDDLLPPEQKAEREKERRVANNARERLRVRDINEAFKELGRMCQLHLSSEKPQTKLLILHQAVAVILSLEQQVRERNLNPKAACLKRREEEKVSGVVGDPQLALSAAHPGLGEAHNPAGHL

This assay covers variants of B1. The experiment in a line: co-immunoprecipitation (Flag-IP), blot quantified by ImageJ; Flag-E2A bait, Twist1-Myc prey; n = 3; parent: 1; read off a plot.
chain 1 S192P: the response was ~0.05 relative expression (/GAPDH).
As for chain 1 F191S, the figure is ~1.6 relative expression (/GAPDH).
As for chain 1 A190T, the figure is ~0.52 relative expression (/GAPDH).
